# B1: 26S proteasome regulatory subunit 8 homolog (Saccharomyces cerevisiae), Q01939 (parent)
# chain: MTAAVTSSNIVLETHESGIKPYFEQKIQETELKIRSKTENVRRLEAQRNALNDKVRFIKDELRLLQEPGSYVGEVIKIVSDKKVLVKVQPEGKYIVDVAKDINVKDLKASQRVCLRSDSYMLHKVLENKADPLVSLMMVEKVPDSTYDMVGGLTKQIKEIKEVIELPVKHPELFESLGIAQPKGVILYGPPGTGKTLLARAVAHHTDCKFIRVSGAELVQKYIGEGSRMVRELFVMAREHAPSIIFMDEIDSIGSTRVEGSGGGDSEVQRTMLELLNQLDGFETSKNIKIIMATNRLDILDPALLRPGRIDRKIEFPPPSVAARAEILRIHSRKMNLTRGINLRKVAEKMNGCSGADVKGVCTEAGMYALRERRIHVTQEDFELAVGKVMNKNQETAISVAKLFK
# partner: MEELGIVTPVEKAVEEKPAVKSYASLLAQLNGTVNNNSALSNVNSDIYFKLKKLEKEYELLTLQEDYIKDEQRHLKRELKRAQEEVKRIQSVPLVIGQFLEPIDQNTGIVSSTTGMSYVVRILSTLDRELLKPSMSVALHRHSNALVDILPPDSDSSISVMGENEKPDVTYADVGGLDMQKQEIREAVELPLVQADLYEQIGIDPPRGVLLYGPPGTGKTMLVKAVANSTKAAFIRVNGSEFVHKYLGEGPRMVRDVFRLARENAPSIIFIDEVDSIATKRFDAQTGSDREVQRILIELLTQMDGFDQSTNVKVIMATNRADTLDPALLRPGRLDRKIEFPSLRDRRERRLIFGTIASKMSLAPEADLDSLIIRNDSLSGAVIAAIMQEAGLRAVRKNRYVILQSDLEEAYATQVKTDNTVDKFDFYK
# Variants of: B1
# Conditions: with prs6b_yeast RPT3, P33298
row,Variant,effect of a mutation on the interaction
1,MTAAVTSSNIVLETHESGIKPYFEQKIQETELKIRSKTENVRRLEAQRNALNDKVRFIKDELRLLQEPGSYVGEVIKIVSDKKVLVKVQPEGKYIVDVAKDINVKDLKASQRVCLRSDSYMLHKVLENKADPLVSLMMVEKVPDSTYDMVGGLTKQIKEIKEVIELPVKHPELFESLGIAQPKGVILYGPPGTGRTLLARAVAHHTDCKFIRVSGAELVQKYIGEGSRMVRELFVMAREHAPSIIFMDEIDSIGSTRVEGSGGGDSEVQRTMLELLNQLDGFETSKNIKIIMATNRLDILDPALLRPGRIDRKIEFPPPSVAARAEILRIHSRKMNLTRGINLRKVAEKMNGCSGADVKGVCTEAGMYALRERRIHVTQEDFELAVGKVMNKNQETAISVAKLFK [K195R],decreasing interaction
2,MTAAVTSSNIVLETHESGIKPYFEQKIQETELKIRSKTENVRRLEAQRNALNDKVRFIKDELRLLQEPGSYVGEVIKIVSDKKVLVKVQPEGKYIVDVAKDINVKDLKASQRVCLRSDSYMLHKVLENKADPLVSLMMVEKVPDSTYDMVGGLTKQIKEIKEVIELPVKHPELFESLGIAQPKGVILYGPPGTGSTLLARAVAHHTDCKFIRVSGAELVQKYIGEGSRMVRELFVMAREHAPSIIFMDEIDSIGSTRVEGSGGGDSEVQRTMLELLNQLDGFETSKNIKIIMATNRLDILDPALLRPGRIDRKIEFPPPSVAARAEILRIHSRKMNLTRGINLRKVAEKMNGCSGADVKGVCTEAGMYALRERRIHVTQEDFELAVGKVMNKNQETAISVAKLFK [K195S],decreasing interaction
